Reference: patent publication US20210172932A1

Experiments:
[1] = target: human FcRn (immobilized on nickel-nitrilotriacetic acid-coated biosensors) (human) (UniProt P55899); experiment: BLI (Octet RED), FcRn on Ni-NTA biosensor, pH 6.0
[2] = target: human FcRn (FCGRT and beta2-microglobulin) on MDCK-hFcRn cells, clone 305-6 (human) (UniProt P55899); experiment: cell-based or functional assay
[3] = target: human FcRn (immobilized on nickel-nitrilotriacetic acid-coated biosensors) (human) (UniProt P55899); experiment: BLI, pH 6.0; range of the panel, lower end tied to Nivolumab by Table 1
[4] = target: human FcRn (FCGRT and beta2-microglobulin) on MDCK-hFcRn cells, clone 305-6 (human) (UniProt P55899); experiment: flow cytometry, 100 µg/mL on MDCK-hFcRn cells, physiological pH, geometric MFI (No mAb: 94)
[5] = target: human FcRn (FCGRT and beta2-microglobulin) on MDCK-hFcRn cells, clone 305-6 (human) (UniProt P55899); experiment: flow cytometry on MDCK-hFcRn cells
[6] = target: human FcRn (immobilized on nickel-nitrilotriacetic acid-coated biosensors) (human) (UniProt P55899); experiment: FcRn binding at pH 6.0 (BLI)

Row | Substance | Kd [1] [µM] | Transcytosis [2] [ng/mL] | also measured
1 | Atezolizumab (antibody) | 0.65 | 3 | –
2 | Nivolumab (antibody) | 0.25 | 4.3 | Kd [3]: 0.25 µM
3 | Rituximab (antibody) | 0.46 | 5.6 | –
4 | Reslizumab (antibody) | 0.45 | 3.3 | Transcytosis in MDCK-hFcRn cells [2]: 3.3 ng/mL; Binding to MDCK-FcRn cells, MFI [4]: 93 MFI
5 | Durvalumab (antibody) | 0.7 | 6 | –
6 | Natalizumab (antibody) | 0.28 | 4.9 | –
7 | Pembrolizumab (antibody) | – | 4.2 | –
8 | Vedolizumab (antibody) | – | 4.1 | –
9 | 2H7-DG (antibody) | – | – | Binding to MDCK-hFcRN, MFI [5]: 160 MFI; Transcytosis (MDCK-hFcRN) [2]: 4.3 ng/mL; Kd [6]: 0.44 µM
10 | 2H7-Man5 (antibody) | – | – | Binding to MDCK-hFcRN, MFI [5]: 207 MFI; Transcytosis (MDCK-hFcRN) [2]: 10.3 ng/mL; Kd [6]: 0.23 µM
11 | Avelumab (antibody) | 1.3 | 7.3 | –
12 | Olaratumab (antibody) | 0.38 | 8.2 | –
13 | Basiliximab (antibody) | 0.54 | 14.9 | Transcytosis in MDCK-hFcRn cells [2]: 14.8 ng/mL; Binding to MDCK-FcRn cells, MFI [4]: 203 MFI
14 | Tocilizumab (antibody) | – | 5.5 | –
15 | Ofatumumab (antibody) | – | 4.3 | –
16 | Emicizumab (bispecific antibody) | – | 3.6 | –
17 | Evolocumab (antibody) | – | 3.6 | –
18 | Ocrelizumab (antibody) | 0.45 | 4.8 | Binding to MDCK-hFcRN, MFI [5]: 140 MFI; Transcytosis (MDCK-hFcRN) [2]: 4.8 ng/mL; Transcytosis in MDCK-hFcRn cells [2]: 4.8 ng/mL; Kd [6]: 0.45 µM; Binding to MDCK-FcRn cells, MFI [4]: 101 MFI
19 | Alirocumab (antibody) | – | 9.9 | –
20 | Golimumab (antibody) | – | 6.8 | –
21 | Obinutuzumab (antibody) | – | 4.5 | –
22 | Panitumumab (antibody) | 0.78 | 5 | –
23 | Ixekizumab (antibody) | – | 5.1 | –
24 | Pertuzumab (antibody) | 0.57 | 6.8 | Transcytosis in MDCK-hFcRn cells [2]: 6.8 ng/mL
25 | Efalizumab (antibody) | – | 8.3 | –
26 | Palivizumab (antibody) | 0.48 | 3.8 | –
27 | Adalimumab (antibody) | 1.18 | 4.7 | Transcytosis in MDCK-hFcRn cells [2]: 4.7 ng/mL; Binding to MDCK-FcRn cells, MFI [4]: 183 MFI
